We go through seven sequences from the supplement of paper PMC5998384.

Series [1] relates to HeLa Kyoto. Briefly: solubility change mitosis vs G1/S (difference of NP-40 vs SDS log2 ratios) (log2 ratio difference); higher = more soluble in mitosis.
The test system of series [2] is HeLa Kyoto. Briefly: solubility in G1/S (NP-40 vs SDS abundance) (log2 ratio); higher = more soluble. The note with it: cell cycle stage: G1/S.
The subject of series [3] is HeLa Kyoto. Kind of series: melting temperature (median over replicates), in situ; higher = more thermally stable.
Series [4] has as its system HeLa Kyoto. Kind of series: thermal stability score vs G1/S (z-score of summed log2 fold changes over temperatures); higher = more thermally stable than in G1/S.
[5] abbreviates: cell cycle stage: early G1 (4.5 h after nocodazole release).
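Wherever melting temperature (median over replicates), in situ is given: HeLa Kyoto cells synchronized by double thymidine or nocodazole block, proteins quantified by TMT10plex mass spectrometry, three independent biological replicates.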
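Wherever solubility change mitosis vs G1/S (difference of NP-40 vs SDS log2 ratios) is given: synchronized HeLa Kyoto cells (double thymidine block for G1/S, nocodazole release for mitosis), protein amounts in NP-40 versus SDS lysates quantified by mass spectrometry, three biological replicates.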
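Wherever solubility in G1/S (NP-40 vs SDS abundance) is given: HeLa Kyoto cells arrested at G1/S by double thymidine block, proteins quantified by TMT10plex mass spectrometry in mild NP-40 versus SDS extracts, three biological replicates.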
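Wherever thermal stability score vs G1/S (z-score of summed log2 fold changes over temperatures) is given: synchronized HeLa Kyoto cells, proteins quantified by TMT10plex mass spectrometry, three biological replicates, mitosis taken 0.5 h after nocodazole release, G1/S directly after double thymidine block.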

With “MAEMGSKGVTAGKIASNVQKKLTRAQEKVLQKLGKADETKDEQFEQCVQNFNKQLTEGTRLQKDLRTYLASVKAMHEASKKLNECLQEVYEPDWPGRDEANKIAENNDLLWMDYHQKLVDQALLTMDTYLGQFPDIKSRIAKRGRKLVDYDSARHHYESLQTAKKKDEAKIAKPVSLLEKAAPQWCQGKLQAHLVAQTNLLRNQAEEELIKAQKVFEEMNVDLQEELPSLWNSRVGFYVNTFQSIAGLEENFHKEMSKLNQNLNDVLVGLEKQHGSNTFTVKAQPSDNAPAKGNKSPSPPDGSPAATPEIRVNHEPEPAGGATPGATLPKSPSQLRKGPPVPPPPKHTPSKEVKQEQILSLFEDTFVPEISVTTPSQFEAPGPFSEQASLLDLDFDPLPPVTSPVKAPTPSGQSIPWDLWEPTESPAGSLPSGEPSAAEGTFAVSWPSQTAEPGPAQPAEASEVAGGTQPAAGAQEPGETAASEAASSSLPAVVVETFPATVNGTVEGGSGAGRLDLPPGFMFKVQAQHDYTATDTDELQLKAGDVVLVIPFQNPEEQDEGWLMGVKESDWNQHKELEKCRGVFPENFTERVP [BIN1]”, the “solubility change mitosis (log2)” value in series [1] is -0.0586. The “solubility in G1/S (log2)” value in series [2] is 0.803. For the same sequence, the melting temperature in series [3] (cell cycle stage: G1/S) came to 51.9 °C; in series [3] (cell cycle stage: mitosis), 51.6 °C. Moreover, the thermal stability score in series [4] (setting [5]) is -1.69; in series [4] (cell cycle stage: mitosis), 0.531.

In the case of “MAENSVLTSTTGRTSLADSSIFDSKVTEISKENLLIGSTSYVEEEMPQIETRVILVQEAGKQEELIKALKTIKIMEVPVIKIKESCPGKSDEKLIKSVINMDIKVGFVKMESVEEFEGLDSPEFENVFVVTDFQDSVFNDLYKADCRVIGPPVVLNCSQKGEPLPFSCRPLYCTSMMNLVLCFTGFRKKEELVRLVTLVHHMGGVIRKDFNSKVTHLVANCTQGEKFRVAVSLGTPIMKPEWIYKAWERRNEQDFYAAVDDFRNEFKVPPFQDCILSFLGFSDEEKTNMEEMTEMQGGKYLPLGDERCTHLVVEENIVKDLPFEPSKKLYVVKQEWFWGSIQMDARAGETMYLYEKANTPELKKSVSMLSLNTPNSNRKRRRLKETLAQLSRETDVSPFPPRKRPSAEHSLSIGSLLDISNTPESSINYGDTPKSCTKSSKSSTPVPSKQSARWQVAKELYQTESNYVNILATIIQLFQVPLEEEGQRGGPILAPEEIKTIFGSIPDIFDVHTKIKDDLEDLIVNWDESKSIGDIFLKYSKDLVKTYPPFVNFFEMSKETIIKCEKQKPRFHAFLKINQAKPECGRQSLVELLIRPVQRLPSVALLLNDLKKHTADENPDKSTLEKAIGSLKEVMTHINEDKRKTEAQKQIFDVVYEVDGCPANLLSSHRSLVQRVETISLGEHPCDRGEQVTLFLFNDCLEIARKRHKVIGTFRSPHGQTRPPASLKHIHLMPLSQIKKVLDIRETEDCHNAFALLVRPPTEQANVLLSFQMTSDELPKENWLKMLCRHVANTICKADAENLIYTADPESFEVNTKDMDSTLSRASRAIKKTSKKVTRAFSFSKTPKRALRRALMTSHGSVEGRSPSSNDKHVMSRLSSTSSLAGIPSPSLVSLPSFFERRSHTLSRSTTHLI [ECT2]”, the “solubility change mitosis (log2)” value in series [1] was determined as 0.255. Also, the “solubility in G1/S (log2)” value in series [2] was -0.347. In addition, the melting temperature in series [3] (cell cycle stage: G1/S) is 46.9 °C; in series [3] (cell cycle stage: mitosis), 49.4 °C. Besides, the results for the thermal stability score in series [4] (setting [5]) and in series [4] (cell cycle stage: mitosis) were 0.718 and 0.962, respectively.

Take “MAEPDPSHPLETQAGKVQEAQDSDSDSEGGAAGGEADMDFLRNLFSQTLSLGSQKERLLDELTLEGVARYMQSERCRRVICLVGAGISTSAGIPDFRSPSTGLYDNLEKYHLPYPEAIFEISYFKKHPEPFFALAKELYPGQFKPTICHYFMRLLKDKGLLLRCYTQNIDTLERIAGLEQEDLVEAHGTFYTSHCVSASCRHEYPLSWMKEKIFSEVTPKCEDCQSLVKPDIVFFGESLPARFFSCMQSDFLKVDLLLVMGTSLQVQPFASLISKAPLSTPRLLINKEKAGQSDPFLGMIMGLGGGMDFDSKKAYRDVAWLGECDQGCLALAELLGWKKELEDLVRREHASIDAQSGAGVPNPSTSASPKKSPPPAKDEARTTEREKPQ [SIRT2]”: the “solubility change mitosis (log2)” value in series [1] was -0.026. The “solubility in G1/S (log2)” value in series [2] came to 0.229. The melting temperature in series [3] (cell cycle stage: G1/S) came to 51.4 °C; in series [3] (cell cycle stage: mitosis), 52.5 °C. The results for the thermal stability score in series [4] (setting [5]) and in series [4] (cell cycle stage: mitosis) were 0.148 and -0.178, respectively.

For “MAEPSAATQSHSISSSSFGAEPSAPGGGGSPGACPALGTKSCSSSCADSFVSSSSSQPVSLFSTSQEGLSSLCSDEPSSEIMTSSFLSSSEIHNTGLTILHGEKSHVLGSQPILAKEGKDHLDLLDMKKMEKPQGTSNNVSDSSVSLAAGVHCDRPSIPASFPEHPAFLSKKIGQVEEQIDKETKNPNGVSSREAKTALDADDRFTLLTAQKPPTEYSKVEGIYTYSLSPSKVSGDDVIEKDSPESPFEVIIDKAAFDKEFKDSYKESTDDFGSWSVHTDKESSEDISETNDKLFPLRNKEAGRYPMSALLSRQFSHTNAALEEVSRCVNDMHNFTNEILTWDLVPQVKQQTDKSSDCITKTTGLDMSEYNSEIPVVNLKTSTHQKTPVCSIDGSTPITKSTGDWAEASLQQENAITGKPVPDSLNSTKEFSIKGVQGNMQKQDDTLAELPGSPPEKCDSLGSGVATVKVVLPDDHLKDEMDWQSSALGEITEADSSGESDDTVIEDITADTSFENNKIQAEKPVSIPSAVVKTGEREIKEIPSCEREEKTSKNFEELVSDSELHQDQPDILGRSPASEAACSKVPDTNVSLEDVSEVAPEKPITTENPKLPSTVSPNVFNETEFSLNVTTSAYLESLHGKNVKHIDDSSPEDLIAAFTETRDKGIVDSERNAFKAISEKMTDFKTTPPVEVLHENESGGSEIKDIGSKYSEQSKETNGSEPLGVFPTQGTPVASLDLEQEQLTIKALKELGERQVEKSTSAQRDAELPSEEVLKQTFTFAPESWPQRSYDILERNVKNGSDLGISQKPITIRETTRVDAVSSLSKTELVKKHVLARLLTDFSVHDLIFWRDVKKTGFVFGTTLIMLLSLAAFSVISVVSYLILALLSVTISFRIYKSVIQAVQKSEEGHPFKAYLDVDITLSSEAFHNYMNAAMVHINRALKLIIRLFLVEDLVDSLKLAVFMWLMTYVGAVFNGITLLILAELLIFSVPIVYEKYKTQIDHYVGIARDQTKSIVEKIQAKLPGIAKKKAE [RTN3]”, the “solubility change mitosis (log2)” value in series [1] is -0.108. Further, in series [2], the “solubility in G1/S (log2)” value turned out to be 0.125. The melting temperature in series [3] (cell cycle stage: G1/S) was determined as 55.7 °C; in series [3] (cell cycle stage: mitosis), 57.6 °C. In addition, the thermal stability score is 0.293 in series [4] (setting [5]) and -1.15 in series [4] (cell cycle stage: mitosis).

As to “MAEPVSPLKHFVLAKKAITAIFDQLLEFVTEGSHFVEATYKNPELDRIATEDDLVEMQGYKDKLSIIGEVLSRRHMKVAFFGRTSSGKSSVINAMLWDKVLPSGIGHITNCFLSVEGTDGDKAYLMTEGSDEKKSVKTVNQLAHALHMDKDLKAGCLVRVFWPKAKCALLRDDLVLVDSPGTDVTTELDSWIDKFCLDADVFVLVANSESTLMNTEKHFFHKVNERLSKPNIFILNNRWDASASEPEYMEDVRRQHMERCLHFLVEELKVVNALEAQNRIFFVSAKEVLSARKQKAQGMPESGVALAEGFHARLQEFQNFEQIFEECISQSAVKTKFEQHTIRAKQILATVKNIMDSVNLAAEDKRHYSVEEREDQIDRLDFIRNQMNLLTLDVKKKIKEVTEEVANKVSCAMTDEICRLSVLVDEFCSEFHPNPDVLKIYKSELNKHIEDGMGRNLADRCTDEVNALVLQTQQEIIENLKPLLPAGIQDKLHTLIPCKKFDLSYNLNYHKLCSDFQEDIVFRFSLGWSSLVHRFLGPRNAQRVLLGLSEPIFQLPRSLASTPTAPTTPATPDNASQEELMITLVTGLASVTSRTSMGIIIVGGVIWKTIGWKLLSVSLTMYGALYLYERLSWTTHAKERAFKQQFVNYATEKLRMIVSSTSANCSHQVKQQIATTFARLCQQVDITQKQLEEEIARLPKEIDQLEKIQNNSKLLRNKAVQLENELENFTKQFLPSSNEES [MFN1]”, the “solubility change mitosis (log2)” value in series [1] is -0.0897. In series [2], the “solubility in G1/S (log2)” value was -0.168. In addition, the values for the melting temperature in series [3] (cell cycle stage: G1/S) and in series [3] (cell cycle stage: mitosis) were 52 °C and 51.3 °C, respectively. For the same sequence, the thermal stability score was -0.212 in series [4] (setting [5]) and -0.832 in series [4] (cell cycle stage: mitosis).

As for “MAEQEPTAEQLAQIAAENEEDEHSVNYKPPAQKSIQEIQELDKDDESLRKYKEALLGRVAVSADPNVPNVVVTGLTLVCSSAPGPLELDLTGDLESFKKQSFVLKEGVEYRIKISFRVNREIVSGMKYIQHTYRKGVKIDKTDYMVGSYGPRAEEYEFLTPVEEAPKGMLARGSYSIKSRFTDDDKTDHLSWEWNLTIKKDWKD [ARHGDIA]”, in series [1], the “solubility change mitosis (log2)” value is -0.109. Moreover, the “solubility in G1/S (log2)” value in series [2] was found to be 0.25. For the same sequence, the melting temperature turned out to be 51.5 °C in series [3] (cell cycle stage: G1/S) and 51.7 °C in series [3] (cell cycle stage: mitosis). The thermal stability score in series [4] (setting [5]) was 0.408; in series [4] (cell cycle stage: mitosis) it was -2.01.

Consider “MAERAALEELVKLQGERVRGLKQQKASAELIEEEVAKLLKLKAQLGPDESKQKFVLKTPKGTRDYSPRQMAVREKVFDVIIRCFKRHGAEVIDTPVFELKETLMGKYGEDSKLIYDLKDQGGELLSLRYDLTVPFARYLAMNKLTNIKRYHIAKVYRRDNPAMTRGRYREFYQCDFDIAGNFDPMIPDAECLKIMCEILSSLQIGDFLVKVNDRRILDGMFAICGVSDSKFRTICSSVDKLDKVSWEEVKNEMVGEKGLAPEVADRIGDYVQQHGGVSLVEQLLQDPKLSQNKQALEGLGDLKLLFEYLTLFGIDDKISFDLSLARGLDYYTGVIYEAVLLQTPAQAGEEPLGVGSVAAGGRYDGLVGMFDPKGRKVPCVGLSIGVERIFSIVEQRLEALEEKIRTTETQVLVASAQKKLLEERLKLVSELWDAGIKAELLYKKNPKLLNQLQYCEEAGIPLVAIIGEQELKDGVIKLRSVTSREEVDVRREDLVEEIKRRTGQPLCIC [HARS]”, for which the “solubility change mitosis (log2)” value in series [1] was -0.113. Besides, in series [2], the “solubility in G1/S (log2)” value turned out to be 0.354. The melting temperature worked out at 53.5 °C in series [3] (cell cycle stage: G1/S) and 53 °C in series [3] (cell cycle stage: mitosis). The thermal stability score was 5.06 in series [4] (setting [5]) and 4.5 in series [4] (cell cycle stage: mitosis).
